Square brackets hold non-standard residues; d marks the D form. Carminic acid = quencher bound covalently; Ala(Pyr) = not defined here; Dap = NC[C@H](N)C(=O)O
Target: T1, 14-3-3τ (UniProt P27348 1-245)
T1 sequence (looked up): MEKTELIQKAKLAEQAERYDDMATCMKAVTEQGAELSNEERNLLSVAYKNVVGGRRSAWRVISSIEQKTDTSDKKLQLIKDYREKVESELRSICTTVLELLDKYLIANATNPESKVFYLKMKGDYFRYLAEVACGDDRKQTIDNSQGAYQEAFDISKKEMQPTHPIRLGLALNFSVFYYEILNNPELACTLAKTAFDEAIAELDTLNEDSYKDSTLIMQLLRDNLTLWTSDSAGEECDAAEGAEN
Assay: cell-based or functional assay

Ac-G[Ala(Pyr)]TGRR[Dap](Carminic acid)SLPA-NH2 (reading uncertain; also: Ser phosphorylated by PKA in the assay) [P14, AcGAla(Pyr)TGRRDap(Carminic acid)SLPA-amide, serine-phosphorylated by PKA in the assay]
fold increase in fluorescence upon phosphorylation by PKA: 2.2 fold

Source: patent publication US20080318246A1 (ALBERT EINSTEIN COLLEGE OF MEDICINE OF YESHIVA UNIVERSITY, published 2008)
